For data set [1], the target named is T1, DUX4-fl (Homo sapiens, UniProt Q9UBX2 SEQ:1-424). The experiment in a line: EMSA; supershift with E14-3; cold self competitor reduces binding. To be noted: tags: from pCS2-DUX4-fl, TNT SP6 wheat germ extract; label: 32P. As for the experimental part:
(§1) EMSA was performed with ³²P-labeled 31-bp oligonucleotides from endogenous genomic sequences containing the putative DUX4 binding site as probes (sequences below; only forward shown). Radiolabeled probes were incubated with in vitro translated protein generated from pCS2-DUX4-fl or pCS2-DUX4-s² vectors using the TNT SP6 Coupled Wheat Germ Extract System (Promega) according to manufacturer's instructions. To obtain supershift of protein-DNA complexes, 0.1 μg of E14-3 anti-DUX4 rabbit monoclonal antibody was added to the mixtures. For competition experiments, excess unlabeled probes of either wild-type or mutant sequences were included in the binding reaction. The gels were prepared and run as previously described (Knoepfler et al., Nucleic Acids Res 27:3752-3761 (1999)).

Data set [2] addresses DUX4-s (Homo sapiens). Nature of the data set: EMSA; supershift with E14-3. The note with it: tags: from pCS2-DUX4-s2, TNT SP6 wheat germ extract; label: 32P. As for the experimental part:
as §1
A general note: In EMSA bound probe runs differently from free probe, usually more slowly.

Data set [3] addresses T1, DUX4-fl. Nature of the data set: competition; cold mutant does not compete with TRIM48 probe. To be noted: tags: from pCS2-DUX4-fl, TNT SP6 wheat germ extract. The protocol:
as §1

The target in data set [4] is T1, DUX4-fl. The experiment in a line: EMSA; cold self competitor inhibits binding. To be noted: tags: from pCS2-DUX4-fl, TNT SP6 wheat germ extract; label: 32P. As for the experimental part: as §1
Data set [5] concerns the target T1, DUX4-fl. The experiment in a line: competition; cold mutant does not compete with CSF1R probe; core printed as … in legend. The note with it: tags: from pCS2-DUX4-fl, TNT SP6 wheat germ extract. As for the experimental part: as §1
The target in data set [6] is T1, DUX4-fl. The experiment in a line: competition; cold mutant does not compete with THE1D probe. To be noted: tags: from pCS2-DUX4-fl, TNT SP6 wheat germ extract. As for the experimental part: as §1

Substitutions are numbered along the chain they refer to.

T1 sequence (Q9UBX2 whole entry): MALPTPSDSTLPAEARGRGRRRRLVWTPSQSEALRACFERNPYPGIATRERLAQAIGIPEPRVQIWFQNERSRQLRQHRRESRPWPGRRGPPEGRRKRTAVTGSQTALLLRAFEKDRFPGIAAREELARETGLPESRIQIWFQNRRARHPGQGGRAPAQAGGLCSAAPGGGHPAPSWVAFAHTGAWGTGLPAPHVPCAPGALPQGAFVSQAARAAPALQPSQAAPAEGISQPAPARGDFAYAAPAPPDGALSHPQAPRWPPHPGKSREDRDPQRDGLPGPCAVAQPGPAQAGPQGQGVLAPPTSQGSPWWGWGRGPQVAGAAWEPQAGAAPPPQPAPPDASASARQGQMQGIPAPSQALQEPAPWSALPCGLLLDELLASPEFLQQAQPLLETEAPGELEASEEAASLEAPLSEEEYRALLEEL
Sequence of DUX4-s (Homo sapiens) (Q6RFH8 other isoform, or with tags, fused parts or gaps): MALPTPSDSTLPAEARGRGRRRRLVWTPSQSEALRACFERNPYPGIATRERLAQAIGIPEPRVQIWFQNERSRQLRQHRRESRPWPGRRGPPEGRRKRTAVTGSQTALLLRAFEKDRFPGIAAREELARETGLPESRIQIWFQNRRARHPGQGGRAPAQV

B1: TRIM48 (dsDNA)
DNA 1: AGGAGTGATGATAATTTAATCAGCCGTGCAA
DNA 2: TTGCACGGCTGATTAAATTATCATCACTCCT
Turning to B1, the binding result in data set [1] and in data set [2] was “binds” each time.

B2: TRIM48mut (dsDNA)
DNA 1: B1 DNA 1 with A14C, A18T, C21G
DNA 2: B1 DNA 2 with G11C, T14A, T18G
With B2, the binding result in data set [3] is listed as “no binding”.

B3: CSF1R (dsDNA)
DNA 1: CCAGGTGGAGATAATTGAATCATGGGGGCAG
DNA 2: CTGCCCCCATGATTCAATTATCTCCACCTGG
On to B3, for which the binding result in data set [4] and in data set [2] was “binds” throughout.

B4: CSF1Rmut (dsDNA)
DNA 1: B3 DNA 1 with A14C, A18T, C21G
DNA 2: B3 DNA 2 with G11C, T14A, T18G
As for B4, the binding result in data set [5] is on record as “no binding”.

B5: THE1D (dsDNA)
DNA 1: CCTGTGGGAGGTAATCCAATCATGGAGGCAG
DNA 2: CTGCCTCCATGATTGGATTACCTCCCACAGG
In the case of B5, in data set [4], the binding result is reported as “binds”.

B6: THE1Dmut (dsDNA)
DNA 1: B5 DNA 1 with A14C, A18T, C21G
DNA 2: B5 DNA 2 with G11C, T14A, T18G
On to B6, for which, in data set [6], the binding result was “no binding”.

Source of the values: patent US20260250769, “METHODS FOR DETERMINING THE PRESENCE OR RISK OF DEVELOPING FACIOSCAPULOHUMERAL DYSTROPHY (FSHD)” (Fred Hutchinson Cancer Center, published 2026).
